From US20220387586A1 (Hoffmann-La Roche, published 2022)

What was measured:
[1] = molecular target: T1, biotinylated PD1-ECD-AviHis (human, UniProt Q15116 25-170, biotinylated); test: ELISA on coated biotinylated PD1-ECD-AviHis (rel. EC50)
T1 construct: also called huPD1; hu PD1; not shown: Avi-His tag
Experimental: After washing (3×90 μl/well with PBST-buffer) 25 μl/well goat-anti-human H+L-POD (JIR, JIR109-036-098) was added in 1:5000 dilution and incubated at RT for 1 h on a shaker. After washing (3×90 μl/well with PBST-buffer) 25 μl/well of TMB substrate (Roche, 11835033001) was added and incubated until OD 2-3. Measurement took place at 370/492 nm.

[2] = molecular target: PD1 on PD1+LAG3+ human U2OS cells (UniProt Q15116 25-288); test: cell-based or functional assay
[3] = molecular target: T2, full-length human PD1 on cells (human, UniProt Q15116 25-288); test: cell ELISA on CHO-K1 cells expressing full-length human PD1 (rel. EC50)
T2 construct: also called CHO-PD1
In short: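 Cells bound by test antibody were fixed with 0.05% glutaraldehyde for 10 min at RT, then detected with POD-conjugated anti-human H+L or anti-mouse secondary antibody for 1 h at RT. TMB development ran to OD 1.0-2.0, read at 370/492 nm.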

[4] = molecular target: T3, LAG3 on cells (recombinant CHO cells expressing Lag3) (human, UniProt P18627 29-525); test: cell ELISA on recombinant CHO cells expressing Lag3 (rel. EC50)
T3 construct: The cell ELISA paragraphs say only 'Lag3'; also called CHO-LAG3; Lag3 cells
T3 sequence: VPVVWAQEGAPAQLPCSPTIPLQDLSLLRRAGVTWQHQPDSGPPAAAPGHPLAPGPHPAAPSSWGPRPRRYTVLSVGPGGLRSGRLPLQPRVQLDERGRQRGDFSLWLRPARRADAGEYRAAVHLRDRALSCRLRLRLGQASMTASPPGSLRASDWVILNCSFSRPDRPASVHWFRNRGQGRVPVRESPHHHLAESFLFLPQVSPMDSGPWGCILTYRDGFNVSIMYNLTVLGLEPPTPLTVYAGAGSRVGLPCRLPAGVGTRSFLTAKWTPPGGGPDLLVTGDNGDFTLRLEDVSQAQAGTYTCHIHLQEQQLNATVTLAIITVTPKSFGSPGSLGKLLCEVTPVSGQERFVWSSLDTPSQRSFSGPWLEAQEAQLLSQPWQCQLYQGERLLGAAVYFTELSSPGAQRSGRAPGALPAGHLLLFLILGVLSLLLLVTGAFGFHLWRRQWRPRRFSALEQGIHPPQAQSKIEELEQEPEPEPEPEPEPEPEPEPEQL

biotinylated-Lag3 = molecular target: T4, biotinylated-Lag3 (UniProt P18627 23-450, limits assumed, biotinylated); test: ELISA, inhibition of biotinylated-Lag3 binding to MHC-II on A375 cells (competitor MHC-II)
T4 construct: Probably a human LAG3 ECD construct; also called Lag3 (MHCII/ELISA)
T4 sequence (looked up): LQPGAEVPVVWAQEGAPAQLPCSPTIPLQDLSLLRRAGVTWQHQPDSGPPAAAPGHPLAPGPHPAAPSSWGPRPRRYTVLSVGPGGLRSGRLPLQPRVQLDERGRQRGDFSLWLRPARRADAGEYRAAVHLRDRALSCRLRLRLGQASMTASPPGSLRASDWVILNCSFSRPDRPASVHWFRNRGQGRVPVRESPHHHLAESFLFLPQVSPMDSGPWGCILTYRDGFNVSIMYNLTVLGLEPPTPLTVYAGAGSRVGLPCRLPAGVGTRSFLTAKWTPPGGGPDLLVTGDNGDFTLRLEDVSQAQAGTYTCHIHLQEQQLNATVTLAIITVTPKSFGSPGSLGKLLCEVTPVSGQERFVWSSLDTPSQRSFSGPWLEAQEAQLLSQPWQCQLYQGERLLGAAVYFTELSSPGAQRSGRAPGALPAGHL

PD1 on PD1+LAG3+ human U2OS cells, sequence (Q15116 25-288): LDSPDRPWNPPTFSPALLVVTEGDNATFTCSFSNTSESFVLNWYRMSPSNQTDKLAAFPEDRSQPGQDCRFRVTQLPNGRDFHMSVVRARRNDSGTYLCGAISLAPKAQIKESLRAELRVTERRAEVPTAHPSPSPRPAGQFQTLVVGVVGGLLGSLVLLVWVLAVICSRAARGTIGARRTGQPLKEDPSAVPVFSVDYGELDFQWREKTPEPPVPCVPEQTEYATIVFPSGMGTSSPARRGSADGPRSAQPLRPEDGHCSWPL
T2 sequence (Q15116 25-288 limits assumed): as the sequence (Q15116 25-288) above
T1 sequence (Q15116 25-170): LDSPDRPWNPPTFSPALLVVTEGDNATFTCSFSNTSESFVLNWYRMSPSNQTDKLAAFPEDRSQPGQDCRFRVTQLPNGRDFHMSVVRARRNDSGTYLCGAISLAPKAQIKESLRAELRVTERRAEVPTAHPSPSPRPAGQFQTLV

B1: PD1/LAG3 0927 (bispecific antibody, human IgG1, kappa, L234A L235A)
heavy 1: not shown
heavy 2: EVQLLESGGGLVQPGGSLRLSCAASGFIFDDYTMNWVRQAPGKGLEWVAVISWDGGGTYYTDSVKGRFTISRDDFKNTLYLQMNSLRAEDTAVYYCAKGLTDTTLYGSDYWGQGTLVTVSSASTKGPSVFPLAPSSKSTSGGTAALGCLVEDYFPEPVTVSWNSGALTSGVHTFPAVLQSSGLYSLSSVVTVPSSSLGTQTYICNVNHKPSNTKVDEKVEPKSCDKTHTCPPCPAPEAAGGPSVFLFPPKPKDTLMISRTPEVTCVVVDVSHEDPEVKFNWYVDGVEVHNAKTKPREEQYNSTYRVVSVLTVLHQDWLNGKEYKCKVSNKALGAPIEKTISKAKGQPREPQVCTLPPSRDELTKNQVSLSCAVKGFYPSDIAVEWESNGQPENNYKTTPPVLDSDGSFFLVSKLTVDKSRWQQGNVFSCSVMHEALHNHYTQKSLSLSPGK
light 1: EVQLLESGGGLVQPGGSLRLSCAASGFSFSSYTMSWVRQAPGKGLEWVATISGGGRDIYYPDSVKGRFTISRDNSKNTLYLQMNSLRAEDTAVYYCVLLTGRVYFALDSWGQGTLVTVSSASVAAPSVFIFPPSDEQLKSGTASVVCLLNNFYPREAKVQWKVDNALQSGNSQESVTEQDSKDSTYSLSSTLTLSKADYEKHKVYACEVTHQGLSSPVTKSFNRGEC
light 2: not shown
notes: 1+1 CrossMAb Vh-VL, knobs into holes, IgG1 PGLALA
With B1 the EC50 [1] was 0.07 nM, the “EC50 [pM], dimerization binding assay (chemoluminescence)” value [2] was 41 pM and the EC50 [3] was 0.1 nM. The EC50 [4] was 0.23 nM and the IC50 (biotinylated-Lag3) was 1.11 nM.

B2: PD1/LAG3 0799 (bispecific antibody, human IgG1, kappa, L234A L235A)
heavy 1: not shown
heavy 2: EVQLVESGGGLVQPGGSLRLACAASGFTFSDYAMSWVRQAPGKGLEWVSGIDNSGYYTYYTDSVKGRFTISRDDVKNTLYLQMNSLRAEDTAVYLCTKTHSGLIVNDAFDIWGQGTMVTVSSASTKGPSVFPLAPSSKSTSGGTAALGCLVEDYFPEPVTVSWNSGALTSGVHTFPAVLQSSGLYSLSSVVTVPSSSLGTQTYICNVNHKPSNTKVDEKVEPKSCDKTHTCPPCPAPEAAGGPSVFLFPPKPKDTLMISRTPEVTCVVVDVSHEDPEVKFNWYVDGVEVHNAKTKPREEQYNSTYRVVSVLTVLHQDWLNGKEYKCKVSNKALGAPIEKTISKAKGQPREPQVCTLPPSRDELTKNQVSLSCAVKGFYPSDIAVEWESNGQPENNYKTTPPVLDSDGSFFLVSKLTVDKSRWQQGNVFSCSVMHEALHNHYTQKSLSLSPGK
light 1: B1 light 1
light 2: not shown
notes: as for B1
In the case of B2, the EC50 [1] is reported as 0.06 nM, the “EC50 [pM], dimerization binding assay (chemoluminescence)” value [2] is reported as 76 pM and the EC50 [3] is reported as 0.07 nM. It also gave an EC50 [4] of 0.2 nM and an IC50 (biotinylated-Lag3) of 0.72 nM.
